Blank lines part the entries; values can stand above or below the molecule they belong to.
Legend:
[1] = biological target: T1, RNAP IIO (Bos taurus, UniProt G3MZY8); test: CTD phosphatase assay with RNAP IIO as substrate; assay type: biochemical, calf
T1 construct: Calf thymus RNAP IIA was purified; from tissue; host or cells: calf thymus
Description: (§1) FIGS. 2C and 2D show a CTD phosphatase assay of FCP1 and SCP1 on GST-CTDo and RNAP IIO prepared by MAPK2/ERK2. Increasing amounts of FCP1 or GST-SCP1 214 were assayed in the presence of 75 fmol GST-CTDo (lanes 1-6), 75 fmol RNAP IIO (lanes 7-12), or 75 fmol GST-CTDo and 75. fmol RNAP IIO (lanes 13-18). Both GST-CTDo and RNAP IIO substrates were prepared by the in vitro phosphorylation of CKII-labeled GST-CTDa or RNAP IIA by MAPK2/ERK2. All reactions were carried out in the presence of 7 pmol RAP74. CTD dephosphorylation of both GST-CTDo and RNAP IIO is shown by the increase in mobility of GST-CTDo to GST-CTDa and subunit IIo to IIa, respectively. The difference in the intensity of radiolabeled GST-CTDoand that of radiolabeled subunit IIo is not a reflection of a difference in the amount of substrates present, but of the higher efficiency with which CKII incorporates radiolabeled phosphates onto the most C-terminal serine of GST-CTDa compared to subunit. IIa.
Increasing amounts of GST-SCP1 214 were assayed in the presence of 3.7 fmol RNAP IIO prepared by CTDK1/CTDK2, TFIIH, P-TEFb, MAPK2/ERK2 and Cdc2 kinase. All reactions were carried out in-the presence of 7 pmol. RAP74. CTD dephosphorylation of RNAP IIO isozymes. by qSTSCP1 214 is shown by an increase in mobility of subunit IIo to that of IIa. The results are summarized in the graph showing the percent of RNAP IIO remaining as a function of increasing SCP1 concentrations.
Preparation and Purification of ^32P-RNAP IIO Isozymess and ^32P-GST-CTDo: Calf thymus RNAP IIA was purified by the method of Hodo and Blatti (30) with modifications as described by Kang and Dahmus (31). Specific isozymes of ^32p-labeled RNAP IIO were prepared by phosphorylation at the most C-terminal serine (CKII site) in the largest subunit of purified RNAP IIA with recombinant CKII and […], followed by CTD phosphorylation in the presence of 2 mM ATP with either purified CTDK1/CTDK2, TFIIH, P-TEFb, recombinant MAPK2/ERK2 or recombinant Cdc2 kinase. The RNAP IIO isozymes were individually purified over a DE53 column with a step elution of 500 mM KCl (28). Because only the most C-terminal serine is labeled with ^32p and lies outside. the consensus repeat, dephosphorylation by CTD phosphatase results in an electrophoretic mobility shift in SDS-PAGE of subunit IIo to the position of subunit IIa without the loss of label. Similarly, ^32P-labeled GST-CTDo was prepared from GST-CTDa by CKII followed by MAPK2/ERK2. GST-CTDo was purified over a glutathione-agarose column with a step elution of 15 mM glutathione.
CTD phosphatase assays utilizing RNAP IIO and GST-CTDo as substrate were performed as described previously (32) with minor modifications. Reactions were performed in 20 μl of CTD phosphatase buffer (50 mM Tris-HCl, pH 7.9, 10 mM MgCl2, 20% glycerol, 0.025% Tween 80, 0.1 mM EDTA, 5 mM DTT) in the presence of 20 mM KCl. Each reaction contained specified amounts of GST-CTDo and/or RNAP IIO and was carried out in the presence of 7 pmol RAP74. Reactions were initiated by the addition of FCP1 or SCP1 and incubated at 30° C. for 30 minutes. Assays were terminated by the addition of 5× Laemmli buffer, and RNAP II subunits and GST-CTD were resolved on a 5% SDS-PAGE gel. The gel images were developed by autoradiography and scanned by Molecular Dynamics Image Scanner Storm 860 in the phosphor screen mode. Data were quantitatively analyzed by ImageQuant software.

[2] = tested on: P19 mouse embryonic stem cells; test: Neuronal differentiation of P19 cells; assay type: cell-based; settings: clonal P19 line, retinoic acid, selective medium
Description: P19 cells, C, differentiated GFP expressing P19 cells; D, differentiated SCP1-expressing P19 cells; F, differentiated REST/NRSF-expressing P19 cells. Numbers of NLC per field are shown. *p=0.001 compared to WT 19 cells; **p=0.008 compared to WT P19 cell using student's t-test.
P19 stably expressing REST/NRSF.
These cell lines were maintained in α-MEM/10%FBS with […] G418. To induce neuronal differentiation, P19 cells were allowed to aggregate in bacterial grade petri-dishes (Fisher) at a seeding density of 1×10^5cells/ml in the presence of 1×10^−6M all-trans retinoic acid. After 3 days of aggregation, cells were dissociated into single cells by 0.05% trypsin-0.53 mM EDTA (Gibco). Trypsin was removed by centrifugation and the cells were plated in 6 cm tissue culture dishes (Nunc). at a density of 1×10^5 cells/cm^2 in Neurobasal medium/N2 supplement (Invitrogen) in the presence or absence of 1 μg/ml fibronectin (Invitrogen). The cells were cultured for 5 days after which average cell numbers/field were determined. Cells were either lysed to prepare total RNA (Rneasy kit, Qiagen) or stained with TuJ1 antibody (Babco).
For immunostaining, cells were fixed for 10 mins with 4% paraformaldehyde. TuJ1 antibody was used at 1:2000 and secondary antibody used was FITC-conjuagated anti-mouse (1:3000).

[3] = tested on: 28 aa CTD heptad repeat peptide with Ser 5 phosphate or Ser 2 phosphate; test: CTD phosphopeptide phosphatase assay (malachite green); assay type: biochemical; settings: 25 μM phosphopeptide, 60 mins at 37° C.
Description: The indicated amounts of. SCP1 were incubated with the phosphopeptide substrate and phosphate released was measured as described infra.
N-terminal biotinylated CTD phosphopeptides, comprised of 4 tandem repeats YSPTSPS and containing phosphoserine at position 2 or position 5, were synthesized (Alpha Diagnostics, San Antonio, Tex.). Phosphatase reaction mixtures (50 μl) containing 50 mM Tris-acetate, pH 5.5, 10 mM MgCl2, 0.5 mM DTT, 10% glycerol, 25 μM of phosphopeptide and wild type or mutant SCP1 were incubated for 60 mins at 37° C. The reactions were quenched by adding 0.5 ml of malachite green (Biomol). Phosphate release was measured at A620 and quantified relative to a phosphate standard curve.

[4] = biological target: T2, GST-CTDo (Homo sapiens, UniProt P24928); test: CTD phosphatase assay with GST-CTDo (rCTDo) as substrate; assay type: biochemical
T2 construct: made in house
Description: as §1
Preparation and Purification of ^32P-RNAP IIO Isozymess and ^32P-GST-CTDo: Calf thymus RNAP IIA was purified by the method of Hodo and Blatti (30) with modifications as described by Kang and Dahmus (31). […]
CTD phosphatase assays utilizing RNAP IIO and GST-CTDo as substrate were performed as described previously (32) with minor modifications. […] Data were quantitatively analyzed by ImageQuant software.

T2 sequence (P24928 1593-1960 A1835T, one chain of several): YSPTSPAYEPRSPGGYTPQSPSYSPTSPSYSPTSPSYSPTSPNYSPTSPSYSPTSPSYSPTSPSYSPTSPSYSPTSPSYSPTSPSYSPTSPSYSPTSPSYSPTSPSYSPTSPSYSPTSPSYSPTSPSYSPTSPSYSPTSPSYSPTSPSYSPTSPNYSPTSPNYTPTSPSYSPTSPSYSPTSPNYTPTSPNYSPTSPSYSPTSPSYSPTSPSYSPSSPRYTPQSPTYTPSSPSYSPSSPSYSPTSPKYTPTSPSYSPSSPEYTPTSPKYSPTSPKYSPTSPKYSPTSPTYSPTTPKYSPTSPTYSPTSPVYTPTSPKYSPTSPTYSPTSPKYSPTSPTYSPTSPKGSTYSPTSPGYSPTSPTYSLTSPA

B1: SCP2: small CTD phosphatase-2, SEQ ID NO:4 (protein, listed as Homo sapiens)
chain: MEHGSIITQARREDALVLTKQGLVSKSSPKKPRGRNIFKALFCCFRAQHVGQSSSSTELAAYKEEANTIAKSDLLQCLQYQFYQIPGTCLLPEVTEEDQGRICVVIDLDETLVHSSFKPINNADFIVPIEIEGTTHQVYVLKRPYVDEFLRRMGELFECVLFTASLAKYADPVTDLLDRCGVFRARLFRESCVFHQGCYVKDLSRLGRDLRKTLILDNSPASYIFHPENAVPVQSWFDDMADTELLNLIPIFEELSGAEDVYTSLGAAAGPLACPASKRRPSQ
- CTD phosphatase activity when RNAP IIO is utilized as substrate ([1]; compared with SCP1): comparable CTD phosphatase activity

B2: REST/NRSF: RE-1 silencing transcription factor / Neuron-Restrictive Silencer Factor (protein, UniProt Q13127 1-1097, looked up)
RE1-silencing transcription …: MATQVMGQSSGGGGLFTSSGNIGMALPNDMYDLHDLSKAELAAPQLIMLANVALTGEVNGSCCDYLVGEERQMAELMPVGDNNFSDSEEGEGLEESADIKGEPHGLENMELRSLELSVVEPQPVFEASGAPDIYSSNKDLPPETPGAEDKGKSSKTKPFRCKPCQYEAESEEQFVHHIRVHSAKKFFVEESAEKQAKARESGSSTAEEGDFSKGPIRCDRCGYNTNRYDHYTAHLKHHTRAGDNERVYKCIICTYTTVSEYHWRKHLRNHFPRKVYTCGKCNYFSDRKNNYVQHVRTHTGERPYKCELCPYSSSQKTHLTRHMRTHSGEKPFKCDQCSYVASNQHEVTRHARQVHNGPKPLNCPHCDYKTADRSNFKKHVELHVNPRQFNCPVCDYAASKKCNLQYHFKSKHPTCPNKTMDVSKVKLKKTKKREADLPDNITNEKTEIEQTKIKGDVAGKKNEKSVKAEKRDVSKEKKPSNNVSVIQVTTRTRKSVTEVKEMDVHTGSNSEKFSKTKKSKRKLEVDSHSLHGPVNDEESSTKKKKKVESKSKNNSQEVPKGDSKVEENKKQNTCMKKSTKKKTLKNKSSKKSSKPPQKEPVEKGSAQMDPPQMGPAPTEAVQKGPVQVEPPPPMEHAQMEGAQIRPAPDEPVQMEVVQEGPAQKELLPPVEPAQMVGAQIVLAHMELPPPMETAQTEVAQMGPAPMEPAQMEVAQVESAPMQVVQKEPVQMELSPPMEVVQKEPVQIELSPPMEVVQKEPVKIELSPPIEVVQKEPVQMELSPPMGVVQKEPAQREPPPPREPPLHMEPISKKPPLRKDKKEKSNMQSERARKEQVLIEVGLVPVKDSWLLKESVSTEDLSPPSPPLPKENLREEASGDQKLLNTGEGNKEAPLQKVGAEEADESLPGLAANINESTHISSSGQNLNTPEGETLNGKHQTDSIVCEMKMDTDQNTRENLTGINSTVEEPVSPMLPPSAVEEREAVSKTALASPPATMAANESQEIDEDEGIHSHEGSDLSDNMSEGSDDSGLHGARPVPQESSRKNAKEALAVKAAKGDFVCIFCDRSFRKGKDYSKHLNRHLVNVYYLEEAAQGQE
- effect on neuronal differentiation [2]: prevented neuronal differentiation

The remaining lines, values ahead:

- dephosphorylation of Ser 5 versus Ser 2 phosphopeptide [3]: did not act on either phosphopeptide
- concentration without dephosphorylation of rCTDo, relative to that required to dephosphorylate RNAP IIO [4]: > 100 times
- dephosphorylation of RNAP IIO prepared with Cdc2 kinase ([1]; 3.7 fmol RNAP IIO, 7 pmol RAP74): efficiently dephosphorylates
B3: FCP1: recombinant CTD phosphatase FCP1, class C phosphatase with BRCT domain (protein)
chain: MEVPAAGRVPAEGAPTAAVAEVRCPGPAPLRLLEWRVAAGAAVRIGSVLAVFEAAASAQSSGASQSRVASGGCVRPARPERRLRSERAGVVRELCAQPGQVVAPGAVLVRLEGCSHPVVMKGLCAECGQDLTQLQSKNGKQQVPLSTATVSMVHSVPELMVSSEQAEQLGREDQQRLHRNRKLVLMVDLDQTLIHTTEQHCQQMSNKGIFHFQLGRGEPMLHTRLRPHCKDFLEKIAKLYELHVFTFGSRLYAHTIAGFLDPEKKLFSHRILSRDECIDPFSKTGNLRNLFPCGDSMVCIIDDREDVWKFAPNLITVKKYVYFQGTGDMNAPPGSRESQTRKKVNHSRGTEVSEPSPPVRDPEGVTQAPGVEPSNGLEKPARELNGSEAATPRDSPRPGKPDERDIWPPAQAPTSSQELAGAPEPQGSCAQGGRVAPGQRPAQGATGTDLDFDLSSDSESSSESEGTKSSSSASDGESEGKRGRQKPKAAPEGAGALAQGSSLEPGRPAAPSLPGEAEPGAHAPDKEPELGGQEEGERDGLCGLGNGCADRKEAETESQNSELSGVTAGESLDQSMEEEEEEDTDEDDHLIYLEEILVRVHTDYYAKYDRYLNKEIEEAPDIRKIVPELKSKVLADVAIIFSGLHPTNFPIEKTREHYHATALGAKILTRLVLSPDAPDRATHLIAARAGTEKVLQAQECGHLHVVNPDWLWSCLERWDKVEEQLFPLRDDHTKAQRENSPAAFPDREGVPPTALFHPMPVLPKAQPGPEVRIYDSNTGKLIRTGARGPPAPSSSLPIRQEPSSFRAVPPPQPQMFGEELPDAQDGEQPGPSRRKRQPSMSETMPLYTLCKEDLESMDKEVDDILGEGSDDSDSEKRRPEEQEEEPQPRKPGTRRERTLGAPASSERSAAGGRGPRGHKRKLNEEDAASESSRESSNEDEGSSSEADEMAKALEAELNDLM

- dephosphorylation of both RNAP IIO and GST-CTDo ([4]; substrates prepared by MAPK2/ERK2, 75 fmol each, 7 pmol RAP74): comparable efficiency
B4: GST-SCP1 214: GST fusion of the 214 aa spliced variant of SCP1, SEQ ID NO:8 (protein)
chain: MMGRPCLLTAGRPCLWRRMAPSLRQTPVQYLLPEAKAQDSDKICVVIDLDETLVHSSFKPVNNADFIIPVEIDGVVHQVYVLKRPHVDEFLQRMGELFECVLFTASLAKYADPVADLLDKWGAFRARLFRESCVFHRGNYVKDLSRLGRDLRRVLILDNSPASYVFHPDNAVPVASWFDNMSDTELHDLLPFFEQLSRVDDVYSVLRQPRPGS
modifications: left off: a dimerising Fc or GST

From US20070172470A1, “Phosphatase regulation of nucleic acid transcription” (The Regents of the University of California, priority 2003, published 2007)
